Measured values as given in the supplement of paper PMC7877785.
± gives the uncertainty stated by the source.

Assay: self-splicing fitness, log relative to wild type (ln ratio); higher = more splicing; Tetrahymena group I intron in knt gene, E. coli kanamycin selection, DiMSum; sequences stand for … in CUCUCU…GGAGGGAAAAGUUAUCAGGCAUGCACCUGGUAGCUAGUCUUUAAACCAAUAGAUUGCAUCGGUUUAAAAGGCAAGACCGUCAAAUUGCGGGAAAGGGGUCAACAGCCGUUCAGUACCAAGUCUCAGGGGAAACUUUGAGAUGGCCUUGCAAAGGGUAUGGUAAUAAGCUGACGGACAUGGUCCUAACCACGCAGCCAAGUCCUAAGUCAACAGAUCUUCUGUUGAUAUGGAUGCAGUUCACAGACUAAAUGUCGGUCGGGGAAGAUGUAUUCUUCUCAUAAGAUAUAGUCGGACCUCUCCUUAAUGGGAGCUAGCGGAUGAAGUGAUGCAACACUGGAGCCGCUGGGAACUAAUUUGUAUGCGAAAGUAUAUUGAUUAGUUUUGGAGUACUCGUGGUCG
Method in brief: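 The eight P1ex-region nucleotides of an intron in the knt kanamycin-resistance gene on pET-22b(+) were all randomised and the library put into E. coli BL21(DE3). Six replicate transformations were grown overnight at 37°C or 30°C on LB agar with or without 25 μg/mL kanamycin, together with 100 μg/mL carbenicillin, 50 μM IPTG and 0.2% rhamnose. Colonies were pooled and amplicon-sequenced on an Illumina HiSeq 2500. Fitness from DiMSum is the error-weighted combination of wild-type-normalised replicate fold changes, kanamycin over none.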

Sequence	self-splicing fitness (ln) (37 °C)	self-splicing fitness (ln) (30 °C)
UCUAAGCAAUAUUACGGGGC	-2.21 ± 0.32	–
UCUAAGCAAUAUUACGGUAA	-1.33 ± 0.19	-3.48 ± 0.36
UCUAAGCAAUAUUACGUGUA	-0.704 ± 0.1	-1.6 ± 0.12
UCUAAGCAAUAUUACGUGUU	-2.81 ± 0.13	-3.44 ± 0.14
UCUAAGCAAUAUUACGUUCU	-1.47 ± 0.14	-3.14 ± 0.22
UCUAAGCAAUAUUACGUUUA	-1.69 ± 0.37	–
UCUCAGCAAUAUUACGAAUG	-1.85 ± 0.26	-1.73 ± 0.15
UCUCAGCAAUAUUACGACCG	-1.07 ± 0.47	–
UCUCAGCAAUAUUACGAUCA	-0.219 ± 0.17	-0.104 ± 0.17
UCUCAGCAAUAUUACGAUGC	-2.55 ± 0.27	-3.28 ± 0.28
UCUCAGCAAUAUUACGCAGG	-2.28 ± 0.25	-4.14 ± 0.42
UCUCAGCAAUAUUACGGAUA	0.0308 ± 0.15	-1.12 ± 0.16
UCUCAGCAAUAUUACGGAUC	-1.52 ± 0.13	-3.82 ± 0.32
UCUCAGCAAUAUUACGGCGG	-1.01 ± 0.18	-2.46 ± 0.16
UCUCAGCAAUAUUACGGCUG	-2.21 ± 0.28	-2.11 ± 0.13
UCUCAGCAAUAUUACGGGCG	-0.262 ± 0.12	-0.717 ± 0.08
UCUCAGCAAUAUUACGGGUA	-0.0376 ± 0.11	-0.605 ± 0.11
UCUCAGCAAUAUUACGGUAC	-2.52 ± 0.34	-3.18 ± 0.35
UCUCAGCAAUAUUACGGUGC	-3.08 ± 0.23	-3.17 ± 0.24
UCUCAGCAAUAUUACGUAAA	-1.04 ± 0.2	-1.82 ± 0.15
UCUCAGCAAUAUUACGUACA	-0.374 ± 0.15	-1.81 ± 0.21
UCUCAGCAAUAUUACGUGAC	-1.82 ± 0.37	-2.02 ± 0.39
UCUCAGCAAUAUUACGUGUU	-2.73 ± 0.15	-3.47 ± 0.14
UCUGAGCAAUAUUACGAACG	-1.65 ± 0.38	-2.04 ± 0.34
UCUGAGCAAUAUUACGAAGU	-1.56 ± 0.19	-2.62 ± 0.16

Sequence	self-splicing fitness (ln) (37 °C)	self-splicing fitness (ln) (30 °C)
UCUGAGCAAUAUUACGACAU	-2.73 ± 0.044	-3.788 ± 0.034
UCUGAGCAAUAUUACGAGAG	-2.69 ± 0.45	-4.12 ± 0.26
UCUGAGCAAUAUUACGAUAC	-2.12 ± 0.25	–
UCUGAGCAAUAUUACGCAAC	-2.24 ± 0.29	–
UCUGAGCAAUAUUACGCACC	–	-3.59 ± 0.45
UCUGAGCAAUAUUACGCAUG	-1.65 ± 0.17	-2.33 ± 0.18
UCUGAGCAAUAUUACGCUUG	-2.31 ± 0.3	-4.34 ± 0.46
UCUGAGCAAUAUUACGGAGU	-2.57 ± 0.17	-2.86 ± 0.19
UCUGAGCAAUAUUACGGAUG	-2.14 ± 0.23	-4.11 ± 0.31
UCUGAGCAAUAUUACGGCUG	-2.22 ± 0.21	-3.48 ± 0.2
UCUGAGCAAUAUUACGGGCC	–	-2.67 ± 0.35
UCUGAGCAAUAUUACGGGUU	-2.5 ± 0.24	-2.32 ± 0.17
UCUGAGCAAUAUUACGUAGU	-0.756 ± 0.13	-2.3 ± 0.11
UCUGAGCAAUAUUACGUCAC	-2.32 ± 0.45	–
UCUGAGCAAUAUUACGUCCU	–	-1.81 ± 0.39
UCUGAGCAAUAUUACGUCGG	-0.184 ± 0.12	-0.746 ± 0.093
UCUGAGCAAUAUUACGUGAA	-1.9 ± 0.27	-2.32 ± 0.17
UCUGAGCAAUAUUACGUUUG	-1.81 ± 0.15	-4.82 ± 0.29
UCUUAGCAAUAUUACGACAG	-1.56 ± 0.22	-2.9 ± 0.24
UCUUAGCAAUAUUACGACGG	-0.0318 ± 0.2	-0.955 ± 0.15
UCUUAGCAAUAUUACGACGU	-0.505 ± 0.13	-0.316 ± 0.1
UCUUAGCAAUAUUACGAGGC	–	-3.01 ± 0.46
UCUUAGCAAUAUUACGCAAG	-2.48 ± 0.28	-1.34 ± 0.2
UCUUAGCAAUAUUACGCGAA	-1.19 ± 0.3	–
UCUUAGCAAUAUUACGCUAG	-2.47 ± 0.28	-2.15 ± 0.19

Sequence	self-splicing fitness (ln) (37 °C)	self-splicing fitness (ln) (30 °C)
UCUUAGCAAUAUUACGGACC	-1.91 ± 0.28	–
UCUUAGCAAUAUUACGGAGC	-0.68 ± 0.14	-3.74 ± 0.4
UCUUAGCAAUAUUACGGAUG	-1.76 ± 0.17	-3.74 ± 0.28
UCUUAGCAAUAUUACGGCGA	-0.295 ± 0.13	-0.253 ± 0.15
UCUUAGCAAUAUUACGGGAC	-1.8 ± 0.32	-3.78 ± 0.24
UCUUAGCAAUAUUACGGGCC	-1.41 ± 0.27	-3.6 ± 0.32
UCUUAGCAAUAUUACGGGGC	-3.03 ± 0.27	-3.82 ± 0.3
UCUUAGCAAUAUUACGUAAU	-2.58 ± 0.2	-5 ± 0.45
UCUUAGCAAUAUUACGUACG	-0.522 ± 0.088	-1.58 ± 0.083
UCUUAGCAAUAUUACGUCGU	-1.92 ± 0.12	-2.2 ± 0.12
UGAAAGCAAUAUUACGAACU	0.612 ± 0.1	-0.526 ± 0.088
UGAAAGCAAUAUUACGAAGG	-1.48 ± 0.25	-2.92 ± 0.21
UGAAAGCAAUAUUACGAAUC	-2.53 ± 0.21	-3.58 ± 0.21
UGAAAGCAAUAUUACGAUAU	-1.21 ± 0.13	-2.68 ± 0.18
UGAAAGCAAUAUUACGAUUC	-2 ± 0.22	-2.53 ± 0.18
UGAAAGCAAUAUUACGCACU	0.371 ± 0.11	-0.504 ± 0.094
UGAAAGCAAUAUUACGCCGA	-0.339 ± 0.14	-1.61 ± 0.14
UGAAAGCAAUAUUACGCCUA	0.207 ± 0.098	0.122 ± 0.093
UGAAAGCAAUAUUACGCGCG	-0.153 ± 0.1	-0.237 ± 0.079
UGAAAGCAAUAUUACGCGCU	0.297 ± 0.14	-0.84 ± 0.11
UGAAAGCAAUAUUACGCGGA	-1.52 ± 0.13	-1.66 ± 0.13
UGAAAGCAAUAUUACGCGGG	-0.83 ± 0.11	-2.8 ± 0.13
UGAAAGCAAUAUUACGCGGU	-1.78 ± 0.36	–
UGAAAGCAAUAUUACGCGUA	-0.174 ± 0.13	-1.31 ± 0.12
UGAAAGCAAUAUUACGGAAG	-1.15 ± 0.14	-1.78 ± 0.11

Sequence	self-splicing fitness (ln) (37 °C)	self-splicing fitness (ln) (30 °C)
UGAAAGCAAUAUUACGGCAA	0.497 ± 0.1	-0.125 ± 0.078
UGAAAGCAAUAUUACGGGCC	-1.32 ± 0.22	-3.48 ± 0.23
UGAAAGCAAUAUUACGGGCG	0.348 ± 0.11	-0.0565 ± 0.085
UGAAAGCAAUAUUACGGUCG	0.137 ± 0.067	0.0681 ± 0.051
UGAAAGCAAUAUUACGUAUG	-1.21 ± 0.14	-1.53 ± 0.098
UGAAAGCAAUAUUACGUCUU	-0.659 ± 0.073	-1.69 ± 0.074
UGAAAGCAAUAUUACGUGCG	-0.395 ± 0.073	-0.35 ± 0.065
UGAAAGCAAUAUUACGUGUA	-1.08 ± 0.11	-1.5 ± 0.091
UGACAGCAAUAUUACGAAAU	-2.74 ± 0.24	-3.12 ± 0.19
UGACAGCAAUAUUACGAAGG	-1.36 ± 0.17	-3.84 ± 0.23
UGACAGCAAUAUUACGAGGA	-3.06 ± 0.22	-2.51 ± 0.16
UGACAGCAAUAUUACGAUCC	0.083 ± 0.11	-0.422 ± 0.09
UGACAGCAAUAUUACGCAGU	-2.13 ± 0.27	-2.63 ± 0.15
UGACAGCAAUAUUACGCCCU	0.0969 ± 0.14	0.0425 ± 0.16
UGACAGCAAUAUUACGGACC	-0.748 ± 0.21	-0.664 ± 0.12
UGACAGCAAUAUUACGGCGC	-1.25 ± 0.15	-2.47 ± 0.15
UGACAGCAAUAUUACGGUUC	-1.79 ± 0.085	-2.92 ± 0.11
UGACAGCAAUAUUACGUAAG	-0.489 ± 0.067	-1.2 ± 0.064
UGACAGCAAUAUUACGUAUA	-0.776 ± 0.096	-2.19 ± 0.092
UGACAGCAAUAUUACGUUUG	-1.03 ± 0.081	-2 ± 0.071
UGAGAGCAAUAUUACGACCA	-1.14 ± 0.21	-1.91 ± 0.14
UGAGAGCAAUAUUACGAGGA	-2.83 ± 0.4	-3.49 ± 0.34
UGAGAGCAAUAUUACGCAGU	-2.41 ± 0.18	-4.62 ± 0.34
UGAGAGCAAUAUUACGCAUC	-1.8 ± 0.19	-4.1 ± 0.46
